Measured values published in the DeepSol protein solubility set.

Assay: soluble on expression in E. coli; label from the status in PepcDB or PDB records

**Q.** For “MAHHHHHHMTSLTEEHEILIDEPPQFTAAAEVIAVGAEEPTVATPEEFTSAQEAGAFLQTPVGTPPATPTSVPTTPSPNEMAAKHARKRWRMEQLALQESVKVVESEPISRRGHSRKAEMSEFAITKAATLNTAPTLLSMSPNIIDTNVTMLGTKRVPLDNFLKVTVLHPKVTPVNLKLEFIDPVLEPVQLSRHQLGNRVTPNEGEGGGMSVKKKRGRKPLVASPSIEEAKAVESGYNAE”, which “soluble on expression in E. coli” value is on record?
**A.** The value was “not soluble”.

**Q.** With “GPGSMASQPGDALGKIEYWVQYIDCALKHPRPLPAGKHAHRQSLETIPEVAELYHCIYKLYNEEESSVWFREPVNALAQEIFTYYDVVKSPMSLRHILDNIVKGDTYSTALQVMEDVELIWKNCITFNGANSLLATEAGKCRSALDRIRRAYQDDQRITVEEAERLFRVISSMQEQQLIDNIAEYLRRDDPTSIDETGAVNFDMLKRKHFRNLERIVDNYSKSRTRS” as the sequence, how does the “soluble on expression in E. coli” value read?
**A.** Its value is “soluble”.

**Q.** For “MGSDKIHHHHHHMRILGIETSCDETGVAIYDEQRGLIANQLYSQIEMHADYGGVVPELASRDHIRKTLPLIQAALKEANLTASEIDGIAYTAGPGLVGALLVGATIARALAYAWNVPALAVHHMEGHLMAPMLEENPPEFPFIALLISGGHTQLIKVAGVGEYEILGESIDDAAGEAFDKTGKLLGLDYPAGVALSQLAEKGTPNRFVFPRPMTDRPGLDFSFSGLKTFAANTINAQLDENGQLNEQTRCDIAHAFQQAVVDTIIIKCKRALQQTGYSRLVMAGGVSANKQLRAELATMMQALKGQVYYPRPQFCTDNGAMIAYTGFIRLKKGEKTDLSVSVKPRWPMTTLLKLSAHHKV”, which “soluble on expression in E. coli” value is on record?
**A.** The value was “not soluble”.

**Q.** Which “soluble on expression in E. coli” value does the source give for “MSIPKQLMIGSVPYEVEVVKGWIDEKENGEVRIAEVTYHEQQIKISDNVAKHEGQMKNVLHEAIHAMLYEYGLDRLNKEVNVNALTTVFFDFIKNNIRGGISSFVGYQYLLLKCPEKTNVEFYDSDTDPATLRFKKETDELSFINTAAELVETINQHPPEVDVSALGVAMAKAEVHKAVDLGVAHEQIQESAVKMTTDKQTRKLPIVDVNRSSFPMEEIAKITKKEETDPIHWKTGIKYDDEGTPRYRTRYECCMCGNRGNQYEYEENKFTKCHKCNAKLKIVQATKNGFPERDAFGNFYVANDEYSVILDGE” here?
**A.** Its value is “not soluble”.

**Q.** Which “soluble on expression in E. coli” value does the source give for “MSLCTPLTSYSGFQAIEAKPAEMKVGEDSKSTLMEKLGSPSAVSTFDNNTWYYISQTTDRVAFYMPRVIKRDVVAIKFNPADEKVASVDTYTLQDGKVIAYNGRETPTRGREMTILEQLLGNVGRGGMLPQDDTAPGQRPGDREGHHHHHH” here?
**A.** Its value is “soluble”.

**Q.** For “MSGAAKRVATSSVNWSKLAERLVPEHAAELTRVKGVSGTFQSAVSQLPADLPKIDFAALKKALPAHSAVLDSLQKQYESVKIPYGEVPAEYLKEVDQWVDYNNARIKLHEVKVADGLQEAKKVEEKWAKAPPVEHFDRQHFVEYFPAHFYDLRYQNRIPDPCNIGLNETPEIENRFKDYKVLRRADKVDDH”, which “soluble on expression in E. coli” value is on record?
**A.** Its value is “not soluble”.

**Q.** With “MMSGAEEPVAIIFPQSASDGVEVLYQEFSFGRYFNQIAAGVLRGIVQTRQPRQPLRILEVGGGTGGTTAWLLPELNGVPALEYHFTDISALFTRRAQQKFADYDFVKYSELDLEKEAQSQGFQAQSYDLIVAANVIHATRHIGRTLDNLRPLLKPGGRLLMREITQPMRLFDFVFGPLVLPLQDLDAREGELFLTTAQWQQQCRHAGFSKVAWLPQDGSPT” as the sequence, how does the “soluble on expression in E. coli” value read?
**A.** Its value is “not soluble”.

**Q.** For “MLAKVLKKRGAVLRGDFVLSSGRRSSVYIDMRRLLGDESSYSVALDLLLEVGGQDLARSSAVIGVATGGLPWAAMLALRLSKPLGYVRPERKGHGTLSQVEGDPPKGRVVVVDDVATTGTSIAKSIEVLRSNGYTVGTALVLVDRGEGAGELLARMGVRLVSVATLKTILEKLGWGGE”, which “soluble on expression in E. coli” value is on record?
**A.** The value was “soluble”.

**Q.** Which “soluble on expression in E. coli” value does the source give for “MGSDKIHHHHHHMFWFKNALIYRLTKSLDWSVENLQSQLQQCAYSPCQQSDMSRFGWSNPLRESESLSFCVGKQLLLVAHKEEKILPAQVIKRELEERIEQLEQKENRKLKKIEKQALKDDIVATLLPRAFSKNQHTALWIDTENNLIYIDTASTKRAEDCLALLRKSLGSLPVVPLAFANEPSLVMTNWVKENSPQWLTVLEEAELKGSQDQAVIRCKQQVLDSEEMIGLLNSGKYITNLSLNWEEHLSFTLNEDASLKRLKFADQIREQNDDISKEDFAQRFDADFVLMTGILAKLTENLLDEFGGEKERL” here?
**A.** The value was “not soluble”.

**Q.** With “MGSDKIHHHHHHMLNQQWLATFVTLVEVGHFTHTANKLFMTQPGVSQHIKKLEEQVGVHLLLRKGKRFELTEAGAILYQHARQYQLAETELLARLQTDNTYVGECRFGCSGAIASLLYPHFLERQIQYPELCVKIEAAPNQRIVSGILTNQLDMGIVTKRGEEADLTYQALGYAELSLVLPSQYLVDKIGIELLEQIGFIDHPDGDYYLQQVLQANFGGRAPMVNSRTGSPVKAHTMAFTHHIRRTGYVNQLSQILLPVAKGLGFTVLPLSTVNAFMPRESLWAVDLEQKVQESLYLVHKSTRPLPSRFDAFIEMAARLIAN” as the sequence, how does the “soluble on expression in E. coli” value read?
**A.** The value was “not soluble”.

**Q.** Which “soluble on expression in E. coli” value does the source give for “MPLTPADVHNVAFSKPPIGKRGYNEDEVDQFLDLVEDTLAEIQEENDDLRQQIEELQSSPRAEGSKPAAAPAAVSSLDETKLRKEIEAKVAAEYRAKLADAQEATERAQAELKMAREEADSAKAAAKKAEEAARAAASAATKAQPVAAVAPVGTDGGSATADTHLQAAKVLSMAQEMADRLTAEADSNSKSMLSEARAAAEKQVSDAEAKAKTTLADARQKAEKQLADADARSKALVSDAEKKSAQTLSDANTRAEAQVRQAEEKANALQADAERKHTEIMATVKQQQNALESRISELRTFEREYRTRLKTLLQTQLDELESRGTSAPEDKNV” here?
**A.** Its value is “not soluble”.

**Q.** With “MINSKKELRKNMVLKRDSLEPDLKSIKDNMIYNKVINSIQYKSANNIFVFVSYKSEVDTHNIIRTAIADGKKVFVPKVISKEKGMEAAEIRGFFDLEKSAYGILEPKSSNYIEPESIELLLVPGLAFDESGGRIGYGGGFYDRYMSLLDKSAVKVGICYDFQVIDKVIMNINDVPVDKIIVGLEHHHHHH” as the sequence, how does the “soluble on expression in E. coli” value read?
**A.** Its value is “not soluble”.

**Q.** With “MTTEYLDEERDLPLPRQKKGIDHTQTEPIRGFFGVKDMFAFENVGFTRSSEGKRYLVCGECEQGPVGFVDPVTEMNYVSPERLDVLPDVAAAAVEAGK” as the sequence, how does the “soluble on expression in E. coli” value read?
**A.** Its value is “not soluble”.

**Q.** Which “soluble on expression in E. coli” value does the source give for “MAGDPMGNSSTKGSADSKGDKLHVVTTFYPMYEFTKQIVKDKGDVDLLIPSSVEPHDWEPTPKDIANIQDADLFVYNSEYMETWVPSAEKSMGQGHAVFVNASKGIDLMEGSEEEHEEHDHGEHEHSHAMDPHVWLSPVLAQKEVKNITAQIVKQDPDNKEYYEKNSKEYIAKLQDLDKLYRTTAKKAEKKEFITQHTAFGYLAKEYGLKQVPIAGLSPDQEPSAASLAKLKTYAKEHNVKVIYFEEIASSKVADTLASEIGAKTEVLNTLEGLSKEEQDKGLGYIDIMKQNLDALKDSLLVKSLEHHHHHH” here?
**A.** Its value is “soluble”.

**Q.** With “MKNQLGQLALEQAKTFGGKLEVQPKVDIKTKHDLSIAYTPGVASVSSAIAKDKTLAYDLTTKKNTVAVISDGTAVLGLGDIGPEAAMPVMEGKAALFKAFAGVDAIPIVLDTKDTEEIISIVKALAPTFGGINLEDISAPRCFEIEQRLIKECHIPVFHDDQHGTAIVVLAAIFNSLKLLKKSLDEVSIVVNGGGSAGLSITRKLLAAGATKVTVVDKFGIINEQEAAQLAPHHLDIAKVTNREFKSGTLEDALEGADIFIGVSAPGVLKAEWISKMAARPVIFAMANPIPEIYPDEALEAGAYIVGTGRSDFPNQINNVLAFPGIFRGALDARAKTITVEMQIAAAKGIASLVPDDALSTTNIIPDAFKEGVAEIVAKSVRSVVLKS” as the sequence, how does the “soluble on expression in E. coli” value read?
**A.** The value was “not soluble”.

**Q.** With “MPKKVLIFCDPGIDDTMALLLAFFIDEIEIVGIVADYGNVPKKMAVENAHFFNNETKNRNIKIFGGSERPLTGAPPAFFTDVHGKQGLGPIIPKVNVTNGEMENFFEVIPLIEQYKDELIIVSLGRLTSLAILFIMCKQLMKQIKSYYVMGGAFLHPGNVTPISEANFYGDPTAANIVLQSTANMYIYPLNVTQYSIITPEMAEYIEAKGKAPLVKTLFDHYYYGYYKDALPHLKGSPFHDTIPILALLDNSMFTYHKSPIVVMTESYAQGASIGEFRSLGESKPFIDWPSHQIAIDFDYNRFFKHFMSLMTGEQF” as the sequence, how does the “soluble on expression in E. coli” value read?
**A.** The value was “not soluble”.

**Q.** For “MVKRTVATNGDASGAHRAKKMSKTHASHIINAQEDYKHMYLSVQPLDIFCWGTGSMCELGLGPLAKNKEVKRPRLNPFLPRDEAKIISFAVGGMHTLALDEESNVWSWGCNDVGALGRDTSNAKEQLKDMDADDSSDDEDGDLNELESTPAKIPRESFPPLAEGHKVVQLAATDNMSCALFSNGEVYAWGTFRCNEGILGFYQDKIKIQKTPWKVPTFSKYNIVQLAPGKDHILFLDEEGMVFAWGNGQQNQLGRKVMERFRLKTLDPRPFGLRHVKYIASGENHCFALTKDNKLVSWGLNQFGQCGVSEDVEDGALVTKPKRLALPDNVVIRSIAAGEHHSLILSQDGDLYSCGRLDMFEVGIPKDNLPEYTYKDVHGKARAVPLPTKLNNVPKFKSVAAGSHHSVAVAQNGIAYSWGFGETYAVGLGPFEDDTEVPTRIKNTATQDHNIILVGCGGQFSVSGGVKLSDEDAEKRADEMDD”, which “soluble on expression in E. coli” value is on record?
**A.** Its value is “soluble”.

**Q.** Which “soluble on expression in E. coli” value does the source give for “MVQHSDEKGGAMTTLAIDIGGTKLAAALIGADGQIRDRRELPTPASQTPEALRDALSALVSPLQAHAQRVAIASTGIIRDGSLLALNPHNLGGLLHFPLVKTLGQLTDLPTIAINDAQAAAWAEYQALEGDITDMVFITVSTGVGGGVVSGGKLLTGPGGLAGHIGHTLADPHGPVCGCGRTGCVEAIASGRGIAAAAQGELAGADAKTIFMRAGQGDEQAQQLIHRSAHVLARLIADIKATTDCQCVVVGGSVGLAEGYLALVETYLAQEPAAFHVDLLAAHYRHDAGLLGAALLAQGEKL” here?
**A.** The value was “soluble”.

**Q.** Which “soluble on expression in E. coli” value does the source give for “MSLNLVSEQLLAANGLKHQDLFAILGQLAERRLDYGDLYFQSSYHESWVLEDRIIKDGSYNIDQGVGVRAISGEKTGFAYADQISLLALEQSAQAARTIVRDSGDGKVQTLGAVEHSPLYTSVDPLQSMSREEKLDILRRVDKVAREADKRVQEVTASLSGVYELILVAATDGTLAADVRPLVRLSVSVLVEEDGKRERGASGGGGRFGYEFFLADLDGEVRADAWAKEAVRMALVNLSAVAAPAGTMPVVLGAGWPGVLLHEAVGHGLEGDFNRRGTSVFSGQVGELVASELCTVVDDGTMVDRRGSVAIDDEGTPGQYNVLIENGILKGYMQDKLNARLMGMTPTGNGRRESYAHLPMPRMTNTYMLPGKSTPQEIIESVEYGIYAPNFGGGQVDITSGKFVFSTSEAYLIENGKVTKPVKGATLIGSGIETMQQISMVGNDLKLDNGVGVCGKEGQSLPVGVGQPTLKVDNLTVGGTA” here?
**A.** The value was “soluble”.

**Q.** Which “soluble on expression in E. coli” value does the source give for “MGATLTVAVAACTVSTPTSAIPVTHIKCLRINGQIKCVKPISPNTTPAAEHIEHVRKNPRRKAAMDRAAARIADKIALKAGGETFVSLRMKKGFTQSELATAAGLPQPYLSRIENSKQSLQDKTVQKLANALGVSPLEVRAAFERRYEYMEQA” here?
**A.** The value was “soluble”.

**Q.** Which “soluble on expression in E. coli” value does the source give for “MGHHHHHHHHHHSSGHIEGRHMIRLGYPCENLTLGATTNRTLRLAHLTEERVREKAAENLRDLERILRFNADHGFALFRIGQHLIPFASHPLFPYDWEGAYEEELARLGALARAFGQRLSMHPGQYVNPGSPDPEVVERSLAELRYSARLLSLIGAEDGVLVLHLGGAYGEKGKALRRFVENLRGEEEVLRYLALENDERLWNVEEVLKAAEALGVPVVVDTLHHALNPGRLPLEEALRLAFPTWRGRPRVHLASQDPKKRPGAHAFRVTREDWERLLSALPGPADVMVEAKGKEQGLATP” here?
**A.** Its value is “soluble”.
